This is an account of results in publication doi:10.1101/2021.06.02.446813 (bioRxiv, 2021).

Test [1] has as its target SARS-CoV-2 S1 protein (Sino Biological) (SARS-CoV-2, ancestral (Wuhan-Hu-1) …, UniProt P0DTC2). Description: ELISA. On the technique in general: ELISA stands for enzyme-linked immunosorbent assay.
For test [2], the target named is SARS-CoV-2 RBD-SD1 (residues 306-577) (Severe acute respiratory syndrome …, UniProt P0DTC2). Description: BLI.

B1: antibody 5317-10 (IgG1) (antibody, V domains shown)
VH: EVQLVQSGAEVKKPGESLTISCKASGYRFTSNWITWVRQMPGKGLEWMGRIDPDDPYSNSSPSFQGHATLSLDKAINTAYLHWSSLKASDTAMYYCARVNRVGDGPDFWGQGTLVTVSS
VL: DIVMTQSPLSLPVTPGEPASISCRSSQSLLFGNGYTYLNWYLQKPGQSPQLLIYLGSNRASGVPDRFSVSGSGTDFTLIISRVEAEDVGVYFCMQALQTPWTFGQGTKVEIK
As for B1, in test [1], the binding result is “binds”.

B2: antibody 5317-4 (IgG1) (antibody, V domains shown)
VH: QVQLRLWGAGLLKPSETLSLTCAVSGGSFIDYYWTWIRQPPGKGLEWIGEINHFGGSGYNPSLKSRVSISVDTSKNQFSLRLNSVTAADTAIYYCARKPLLHSSVNPGAFDIWGQGTMLTVSS
VL: EIVLTQSPGTLSLSPGERAALSCRASQSVAGTYLAWYQQKPGQAPRLLIYGASSRATGIPDRFSGSGSGTDFTLTISRLEPEDFAVYYCQQYATSPRTFGQGTQLEIR
On to B2, for which the binding result in test [2] was “binds”.
